The supplement of paper PMC10567573

B1: PTPLAD1 (parent)
chain: YINFRHLYKQRRRRYGQKKKKIH
B2: CDC25A (parent)
chain: KKFRTKSRTWAGEKSKREMYSRLK

Variants of: B1
Experiment: protein stability index of a GFP-peptide fusion (GPS, HEK-293T) (PSI 1-6); higher = more stable
Details: c terminus: native
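Also: lentivirally expressed fusions sorted by FACS into six bins by GFP to DsRed ratio, PSI derived from sequencing read proportions per bin multiplied by bin number.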

Protein stability index of substitutions, site by site:
I22: G 1.5; A 2.02; R 1.81; E 2.66; M 2.23; F 1.72; H 2.13; L 2.67; C 1.86; N 1.9; T 2.1; Y 2.08; W 2.22; P 1.86; D 2.56; V 1.41; S 2.33; Q 2.44
K18: A 2.15; N 1.96; W 2.22; R 1.97; D 2.44; V 2.29; T 2.19; C 2.62; F 2.46; P 1.52; Y 2.39; Q 1.56; L 2.42; I 2.86; S 1.65; M 1.78; E 2.17; G 1.91
K21: G 2.96; H 1.94; C 2.5; I 2.14; T 2.7; W 2.37; N 2.27; M 2.3; D 1.33; P 1.99; Y 1.35; R 2.49; V 1.6; F 2.76; Q 1.39; L 1.92; S 2.33
Q17: T 2.54; M 1.73; R 2.59; Y 1.7; V 1.89; P 1.46; W 1.63; N 4
K19: P 1.95; H 2.49; G 2.15; D 2.66; R 1.91; A 2.04; T 1.96; L 3.09; F 2.25; N 1.62; E 1.57; I 2.54; Y 2.12; W 2.02; Q 2.09; S 2.07; M 2.31
H23: D 2.09; K 1.58; E 1.04; T 3.73; C 1.05; W 2.25; S 1.48; V 2.58; F 1.11; P 2.07
K20: T 1.99; C 1.83; G 2.77; I 2.92; Q 1.46; E 1.66; A 2.05; D 3.01; S 1.69; P 2; Y 3.24; R 1.82; N 1.89; F 1.71; M 1.88; H 2.35; W 1.91

Variants of: B2
Experiment: as above
Details: c terminus: a fixed tail appended

Protein stability index: each site, then its substitutions
K6: G 3.23; C 2.71; N 2.92; H 3.44; I 2.01; L 2.36; T 2.81; F 2.37; D 3.57; V 2.42; A 1.88; P 2.93; Y 2.92; Q 2.58; M 2.91; S 2.32
W10: F 3.47; C 4.02; V 3.9; Q 4.03; N 3.6; I 2.97; L 3.53; T 3.56; R 3.41; S 2.79; Y 3.14; D 3.9; M 3.66; A 3.89; H 3.76; G 3.92; P 3.55
K14: T 3.1; Q 3.09; Y 2.25; F 2.44; V 2.41; I 2.71; M 3.07; L 2.51; G 4.36; N 4.05; A 2.82; H 2.82; P 3.36; W 1.6; S 2.44; R 2.61; C 2.54
K2: P 2.6; G 4.12; M 1.76; I 2.38; S 3.06; Y 3.09; D 3.22; E 3.27; C 2.38; W 2.63; H 1.93
S7: V 2.01; C 2.39; W 3.06; D 3.24; Q 2.39; K 3.11; P 3.13; N 3.17; A 3.3; G 2.78; F 2.4; R 3.57; H 3.51; E 2.92; M 2.42; I 2.9
T9: F 3.17; P 3.12; L 2.74; V 2.55; R 2.29; Q 2.67; Y 3; C 3.12; S 3.31; D 3.54; N 3.55; A 2.79; H 2.29; K 3.48; W 2.79
E13: I 3.07; Q 3.34; F 2.19; P 3.27; L 4.12; R 3.63; T 3.43; W 3.5; N 2.79; H 3.1; D 3.61; K 3.49; Y 3.25; G 3.29; S 2.97
A11: K 2.7; L 2.5; H 3.01; T 3.22; N 2.91; D 2.92; P 3.98; V 2.74; E 2.81; M 2.14; G 3.2; W 2.61; Y 2.82; S 4.42; F 2.62; C 2.73; Q 3.28; I 2.77; R 2.25
T5: M 2.62; Q 3.23; Y 3.24; V 3.85; G 3.33; I 2.5; W 3.02; H 2.81; R 3.06; P 2.39; S 3.71; C 2.87; F 3.25; A 2.15; E 3.37; K 3.12; N 3.56
K1: E 3.74; W 2.37; T 4.1; N 2.7; S 3.22; R 3.04; I 1.89; L 1.95; F 2.37; Q 3.35; V 2.65; D 3.83; Y 2.71; A 3.59; P 3.25
G12: L 2.11; Y 2.61; M 3.44; F 2.68; E 2.82; P 3.93; C 2.61; A 3.21; K 2.42; I 2.43; S 2.64; Q 2.86; N 2.26; V 2.64; T 2.6; W 2.5
R8: A 3.48; M 2.25; V 3.32; N 3.38; W 4.2; Y 4.25; P 3.21; Q 3.37; D 3.57; T 2.95; L 3.86; I 3.39; E 4.16; H 2.84; S 2.7; K 3.31; F 2.88
R4: M 3.46; K 3.18; Q 3.86; T 3.37; A 2.6; I 2.3; E 3.76; W 2.71; H 3.6; S 2.42; G 2.5; P 3.09; Y 3.63; L 2.47; D 3.04; V 3.79; F 2.71; C 3.02; N 3.2
F3: G 3.49; A 3.28; P 2.85; I 3.06; C 3.22; M 3.61; W 3.48; R 3.51; T 3.59; N 3.12; L 3.49; Y 3; K 3.16; H 3.1; S 3.48
S15: C 3.4; D 3.3; F 3.34; A 3.72
